The chains are these.
B1: CPEB3 Ribozyme (parent)
chain: UAACAGGGGGCCACAGCAGAAGCGUUCACGUCGCAGCCCCUGUCAGAUUCUGGUGAAUCUGCGAAUUCUGCUGUAUAUCUC

The variants in the data set derive from B1. In words: self-cleavage, relative activity (ratio to wild type); higher = more cleavage; in vitro, sequencing. The gist of the method: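 After error-prone PCR and barcoding, CPEB3 ribozyme mutant libraries were transcribed with T7 RNA polymerase at 37°C for 5 hours, then given 15 min with DNase I before an EDTA stop, and they cleaved during both steps. Reverse transcription with template switching preceded Illumina sequencing. Relative activity divides a variant's cleaved/total read fraction by the unmutated ribozyme's. At least 5 reads were required per variant, and three batches were averaged.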
For the variant UAACAGGGGGCCACAGCAGAAGCGUUCGCGUCGCAGCCCCUGUCAGAUUCUGGUGAAUCUGCGAAUUCUGCGGUAUAUCUC [A28G U72G], the self-cleavage worked out at 0.56.

For the variant UAACAGGGGGCCACAGCAGAAGCGUUCGCGUCGCAGCCCCUGUCAGAUUCUGGUGAAUCUGCGAAUUCUGCAGUAUAUCUC [A28G U72A], the self-cleavage came out at 0.3.

On to UAACAGGGGGCCACAGCAGAAGCGUUCGCGUCGCAGCCCCUGUCAGAUUCUGGUGAAUCUGCGAAUUCUGCCGUAUAUCUC [A28G U72C], for which the self-cleavage was 0.67. For the variant UAACAGGGGGCCACAGCAGAAGCGUUCGCGUCGCAGCCCCUGUCAGAUUCUGGUGAAUCGGCGAAUUCUGCUGUAUAUCUC [A28G U60G], the self-cleavage turned out to be 0.16. As for UAACAGGGGGCCACAGCAGAAGCGUUCGCGUCGCAGCCCCUGUCAGAUUCUGGUGAAUCAGCGAAUUCUGCUGUAUAUCUC [A28G U60A], the self-cleavage was found to be 0.32.

On to UAACAGGGGGCCACAGCAGAAGCGUUCGCGUCGCAGCCCCUGUCAGAUUCUGGUGAAUCCGCGAAUUCUGCUGUAUAUCUC [A28G U60C], for which the self-cleavage came out at 0.25. UAACAGGGGGCCACAGCAGAAGCGUUCUCGUCGCAGCCCCUGUCAGGUUCUGGUGAAUCUGCGAAUUCUGCUGUAUAUCUC [A28U A47G]: the self-cleavage stood at 0.89.

Turning to UAACAGGGGGCCACAGCAGAAGCGUUCUCGUCGCAGCCCCUGUCAGUUUCUGGUGAAUCUGCGAAUUCUGCUGUAUAUCUC [A28U A47U], the self-cleavage worked out at 0.67. With UAACAGGGGGCCACAGCAGAAGCGUUCGCGUCGCAGCCCCUGUCAGAUUCUGGUGAAUCUGCGAAAUCUGCUGUAUAUCUC [A28G U66A], the self-cleavage was 0.31.

Consider UAACAGGGGGCCACAGCAGAAGCGUUCGCGUCGCAGCCCCUGUCAGAUUCUGGUGAAUCUGCGAACUCUGCUGUAUAUCUC [A28G U66C], for which the self-cleavage is 0.26. As to UAACAGGGGGCCACAGCAGAAGCGUUCGCGUCGCAGCCCCUGUCAGAUUCUGGUGAAUCUGCGAAGUCUGCUGUAUAUCUC [A28G U66G], the self-cleavage stood at 0.2. With UAACAGGGGGCCACAGCAGAAGCGUUCGCGUCGCAGCCCCUGUCAGAUUCUGGCGAAUCUGCGAAUUCUGCUGUAUAUCUC [A28G U54C], the self-cleavage worked out at 0.58. With UAACAGGGGGCCACAGCAGAAGCGUUCGCGUCGCAGCCCCUGUCAGAUUCUGGAGAAUCUGCGAAUUCUGCUGUAUAUCUC [A28G U54A], the self-cleavage worked out at 0.6. As for UAACAGGGGGCCACAGCAGAAGCGUUCGCGUCGCAGCCCCUGUCAGAUUCUGGGGAAUCUGCGAAUUCUGCUGUAUAUCUC [A28G U54G], the self-cleavage turned out to be 0.41. Turning to UAACAGGGGGCCACAGCAGAAGCGUUCUCGUCGCAGCCCCUGUCAGAUUCUGGUGAUUCUGCGAAUUCUGCUGUAUAUCUC [A28U A57U], the self-cleavage worked out at 0.5. With UAACAGGGGGCCACAGCAGAAGCGUUCUCGUCGCAGCCCCUGUCAGAUUCUGGUGAGUCUGCGAAUUCUGCUGUAUAUCUC [A28U A57G], the self-cleavage was found to be 0.64. As for UAACAGGGGGCCACAGCAGAAGCGUUCUCGUCGCAGCCCCUGUCAGAUUCUGGUGAAUCUGCGGAUUCUGCUGUAUAUCUC [A28U A64G], the self-cleavage was 0.63. For UAACAGGGGGCCACAGCAGAAGCGUUCUCGUCGCAGCCCCUGUCAGAUUCUGGUGAAUCUGCGCAUUCUGCUGUAUAUCUC [A28U A64C] the value was 0.34; for UAACAGGGGGCCACAGCAGAAGCGUUCUCGUCGCAGCCCCUGUCAGAUUCUGGUGAAUCUGCGUAUUCUGCUGUAUAUCUC [A28U A64U], 0.31. UAACAGGGGGCCACAGCAGAAGCGUUCUCGUCGCAGCCCCUGUCAGAUUCUGGUGAAUCUGCGAGUUCUGCUGUAUAUCUC [A28U A65G]: the self-cleavage was 0.35. Consider UAACAGGGGGCCACAGCAGAAGCGUUCUCGUCGCAGCCCCUGUCAGAUUCUGGUGAAUCUGCGAUUUCUGCUGUAUAUCUC [A28U A65U], for which the self-cleavage stood at 0.33.

On to UAACAGGGGGCCACAGCAGAAGCGUUCGCGUCGCAGCCCCUGUCAGAUACUGGUGAAUCUGCGAAUUCUGCUGUAUAUCUC [A28G U49A], for which the self-cleavage worked out at 0.31. Next, UAACAGGGGGCCACAGCAGAAGCGUUCGCGUCGCAGCCCCUGUCAGAUCCUGGUGAAUCUGCGAAUUCUGCUGUAUAUCUC [A28G U49C]: 0.22; UAACAGGGGGCCACAGCAGAAGCGUUCGCGUCGCAGCCCCUGUCAGAUUCUGGUGAAUCUGCGAAUUCUGCUGUAUAUCAC [A28G U80A]: 0.72. On to UAACAGGGGGCCACAGCAGAAGCGUUCGCGUCGCAGCCCCUGUCAGAUUCUGGUGAAUCUGCGAAUUCUGCUGUAUAUCCC [A28G U80C], for which the self-cleavage stood at 0.81.

With UAACAGGGGGCCACAGCAGAAGCGUUCGCGUCGCAGCCCCUGUCAGAUUCUGGUGAAUCUGCGAAUUCUGCUGUAUACCUC [A28G U78C], the self-cleavage was 0.61. Regarding UAACAGGGGGCCACAGCAGAAGCGUUCGCGUCGCAGCCCCUGUCAGAUUCUGGUGAAUCUGCGAAUUCUGCUGUAUAGCUC [A28G U78G], the self-cleavage was found to be 0.67.

UAACAGGGGGCCACAGCAGAAGCGUUCGCGUCGCAGCCCCUGUCAGAUUCUGGUGAAUCUGCGAAUUCUGCUGUAUAACUC [A28G U78A]: the self-cleavage turned out to be 0.71.

For UAACAGGGGGCCACAGCAGAAGCGUUCGCGUCGCAGCCCCGGUCAGAUUCUGGUGAAUCUGCGAAUUCUGCUGUAUAUCUC [A28G U41G], the self-cleavage came to 0.15. For the variant UAACAGGGGGCCACAGCAGAAGCGUUCGCGUCGCAGCCCCAGUCAGAUUCUGGUGAAUCUGCGAAUUCUGCUGUAUAUCUC [A28G U41A], the self-cleavage stood at 0.27. As for UAACAGGGGGCCACAGCAGAAGCGUUCGCGUCGCAGCCCCCGUCAGAUUCUGGUGAAUCUGCGAAUUCUGCUGUAUAUCUC [A28G U41C], the self-cleavage is 0.6.

Turning to UAACAGGGGGCCACAGCAGAAGCGUUCGCGUCGCAGCCCCUGUCAGAUUCUGGUGAAUCUGCGAAUUCUGCUGAAUAUCUC [A28G U74A], the self-cleavage worked out at 1.06. For UAACAGGGGGCCACAGCAGAAGCGUUCGCGUCGCAGCCCCUGUCAGAUUCUGGUGAAUCUGCGAAUUCUGCUGCAUAUCUC [A28G U74C], the self-cleavage came out at 1. Regarding UAACAGGGGGCCACAGCAGAAGCGUUCGCGUCGCAGCCCCUGUCAGAUUCUGGUGAAUCUGCGAAUUCUGCUGGAUAUCUC [A28G U74G], the self-cleavage came to 1.08.

The values are drawn from the RNAGym collection of RNA variant scans (doi:10.1093/nar/gkz1192).
